Laboratory results taken from patent publication US6222018, “Hypoxia inducible factor-1 and method of use” (The Johns Hopkins University School of Medicine).

Key:
[1] = target: T1, endogenous HIF-1 in hypoxic Hep3B cells (Homo sapiens, UniProt Q16665;P27540 Q16665:1-826,P27540:2-789); assay: cell_activity; pPGK2svcat, two copies, 1% vs 20% O2; conditions: chain copies: heterodimer (inferred); 5' GATC overhang
Method: (§1) Plasmids were purified by alkaline lysis and two rounds of cesium chloride density gradient centrifugation. Hep3B cells were transfected by electroporation with a Gene Pulser (Bio-Rad) at 260 V and 960 microfarads. Duplicate electroporations were pooled and split onto two 10 cm tissue culture dishes (Corning) containing 8 ml of media. Cells were allowed to recover for 24 h in a 5% CO_2 95% air incubator at 37° C., the media was replaced, and one set of duplicate plates was removed to a modular incubator chamber, which was flushed with 1% O_2, 5% CO_2, balance N_2, sealed, and placed at 37° C. Cells were harvested 72 h after transfection, and extracts were prepared for CAT and β-galactosidase activity.
(§2) To determine whether these HIF-1 binding sites were of functional importance, transient expression essays were performed using the reporter genes described above. Reporter plasmids were cotransfected into Hep3B cells with pSVβgal, which was included as a control for variation in transfection efficiency. Transfected cells were split among duplicate plates that were cultured in 1 or 20% O_2 for 48 h, CAT and β-galactosidase protein synthesized following transcription of reporter and control plasmids, respectively, were quantitated from cellular extracts. […]
(§3) HIF-1 binding site sequences from glycolytic genes were analyzed in the same assay. […]

[2] = target: T1, endogenous HIF-1 in hypoxic Hep3B cells; assay: cell_activity; psvcatEPO2, two copies, 1% vs 20% O2; one copy 4.9-fold; conditions: chain copies: heterodimer (inferred)
Excerpt: Oligonucleotides were cloned into the BglII and BamHI sites located 5' and 3' to the transcription unit, respectively. Plasmids pNMHcat and pHcat (Concordet et al. (1991) Nucleic Acids Res. 19:4173–4180), containing human aldolase A gene sequences fused directly to CAT coding sequences, were provided by P. Maire. pSVβgal (Promega) contained bacterial lacZ coding sequences driven by the SV40 early region promoter and enhancer. Plasmids were purified by alkaline lysis and two rounds of cesium chloride density gradient centrifugation. Hep3B cells were transfected by electroporation with a Gene Pulser (Bio-Rad) at 260 V and 960 microfarads. Duplicate electroporations were pooled and split onto two 10 cm tissue culture dishes (Corning) containing 8 ml of media. […]
as §2, with “Reporter plasmids were cotransfected into Hep3B cells with pSVβgal, which was included as a control for variation in transfection efficiency.” left out

[3] = target: T2, HIF-1 (HIF-1alpha/HIF-1beta (ARNT) heterodimer), affinity-purified (Homo sapiens, UniProt Q16665;P27540 Q16665:1-826,P27540:2-789); assay: competition; up to 250-fold excess M18 does not compete; HIF-1 flows through M18 column; conditions: tags: none; from CoCl2-treated HeLa S3 cells or hypoxic Hep3B cells; chain copies: heterodimer (inferred), higher-order form also seen; 5' gatc overhangs
[4] = target: T1, endogenous HIF-1 in hypoxic Hep3B cells; assay: cell_activity; pPFKL3svcat, three copies, 1% vs 20% O2; conditions: chain copies: heterodimer (inferred); 5' GATC overhang
Method: as §1, §2, §3

[5] = target: T2, HIF-1 (HIF-1alpha/HIF-1beta (ARNT) …); assay: EMSA; competed by unlabeled W18 but not M18; buffer Z-100; conditions: tags: none; from CoCl2-treated HeLa S3 cells or hypoxic Hep3B cells; chain copies: heterodimer (inferred), higher-order form also seen; 5' gatc overhangs
Method: Nuclear extracts were fractionated by DEAE-Sepharose chromatography, and fractions containing HIF-1 activity were applied to a W18 DNA affinity column. 5 ug of protein were incubated with 0.1 ug of calf thymus DNA for gel shift analysis of crude nuclear extract (Crude NE, lane 1) and HIF-1 active fractions from DEAE-Sepharose columns (DEAE, lane 2). For fractions from the W18 column (lanes 3–13), 1 ul aliquots were incubated with 5 ng of calf thymus DNA. The positions of the two HIF-1 bands, constitutive activity (C), nonspecific activity (NS), and free probe (F) are indicated. FT, flowthrough, 0.25M, 0.5M, 1M, and 2M are fractions eluted with indicated concentration of KCl in buffer Z. Figure 3B: FIG. 3B is an autoradiograph showing sequence-specific DNA binding of the partially purified fractions described in the legend to FIG. 3A. 5 ug aliquots of fractions from the DEAE-Sepharose column were incubated with W18 probe in the presence of no competitor (lane 1), 10-fold (lanes 2 and 5), 50-fold (lanes 3 and 6), or 250-fold (lanes 4 and 7) molar excess of unlabeled W18 (W, lanes 2–4) or M18 (M, lanes 5–7) oligonucleotide.
Since HIF-1 DNA binding activity from hypoxic Hep3B cells and CoCl_2-treated HeLa cells are indistinguishable (Example 1), HeLa S3 cells treated with 125 uM CoCl_2 were used as starting material for the large scale purification of HIF-1. […]

T1 sequence (Q16665 whole entry, chain 1 of 2): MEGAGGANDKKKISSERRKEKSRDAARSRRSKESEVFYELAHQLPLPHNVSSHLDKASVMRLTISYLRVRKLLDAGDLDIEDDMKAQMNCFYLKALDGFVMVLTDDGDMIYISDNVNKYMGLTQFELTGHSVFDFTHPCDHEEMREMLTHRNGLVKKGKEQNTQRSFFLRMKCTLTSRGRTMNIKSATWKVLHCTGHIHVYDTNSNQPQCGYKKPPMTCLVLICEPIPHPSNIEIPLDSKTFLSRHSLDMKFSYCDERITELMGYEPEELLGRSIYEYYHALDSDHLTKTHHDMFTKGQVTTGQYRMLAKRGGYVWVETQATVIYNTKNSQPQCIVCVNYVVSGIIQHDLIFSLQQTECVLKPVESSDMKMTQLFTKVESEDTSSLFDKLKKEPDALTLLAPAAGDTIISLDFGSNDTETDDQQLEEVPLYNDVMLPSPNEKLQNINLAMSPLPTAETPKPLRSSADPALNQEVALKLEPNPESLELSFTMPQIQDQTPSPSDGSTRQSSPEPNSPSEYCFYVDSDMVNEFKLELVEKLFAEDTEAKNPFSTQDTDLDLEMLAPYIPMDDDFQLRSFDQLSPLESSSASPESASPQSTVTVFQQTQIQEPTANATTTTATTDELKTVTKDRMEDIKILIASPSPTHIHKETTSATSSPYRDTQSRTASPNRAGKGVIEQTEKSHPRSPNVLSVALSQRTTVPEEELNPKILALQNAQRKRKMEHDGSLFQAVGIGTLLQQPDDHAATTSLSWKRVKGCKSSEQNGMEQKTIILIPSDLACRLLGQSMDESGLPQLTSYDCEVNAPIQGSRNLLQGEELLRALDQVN
T1 sequence (P27540 2-789, chain 2 of 2): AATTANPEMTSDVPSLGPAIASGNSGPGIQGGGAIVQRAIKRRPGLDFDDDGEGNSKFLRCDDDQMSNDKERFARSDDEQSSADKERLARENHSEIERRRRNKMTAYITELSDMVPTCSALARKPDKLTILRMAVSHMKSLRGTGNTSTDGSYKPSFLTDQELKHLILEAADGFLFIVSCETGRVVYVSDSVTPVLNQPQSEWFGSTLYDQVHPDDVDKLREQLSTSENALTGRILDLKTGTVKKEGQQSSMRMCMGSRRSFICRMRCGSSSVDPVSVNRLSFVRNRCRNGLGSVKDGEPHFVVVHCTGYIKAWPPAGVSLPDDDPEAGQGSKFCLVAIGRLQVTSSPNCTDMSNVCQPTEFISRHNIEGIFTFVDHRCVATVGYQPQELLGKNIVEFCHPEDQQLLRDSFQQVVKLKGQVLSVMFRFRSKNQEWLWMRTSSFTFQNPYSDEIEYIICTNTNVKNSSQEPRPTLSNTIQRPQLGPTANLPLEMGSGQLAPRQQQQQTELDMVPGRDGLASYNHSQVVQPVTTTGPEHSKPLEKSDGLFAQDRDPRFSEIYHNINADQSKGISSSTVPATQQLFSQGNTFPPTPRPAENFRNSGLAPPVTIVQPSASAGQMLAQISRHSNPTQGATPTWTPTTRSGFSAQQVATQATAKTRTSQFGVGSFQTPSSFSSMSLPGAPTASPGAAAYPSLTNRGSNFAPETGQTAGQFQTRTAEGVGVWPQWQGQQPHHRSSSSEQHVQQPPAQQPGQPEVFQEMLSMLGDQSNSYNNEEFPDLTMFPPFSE
T2 sequence (Q16665 whole entry, chain 1 of 2): as the sequence (Q16665 whole entry, chain 1 of 2) above
T2 sequence (P27540 2-789, chain 2 of 2): as the sequence (P27540 2-789, chain 2 of 2) above

B1: hPGK1 5'-FS -172/-194 (dsDNA)
DNA 1: GATCGTGAGACGTGCGGCTTCCGTTTG
DNA 2: CAAACGGAAGCCGCACGTCTCACGATC
activity [1]: 5.6 fold induction

B2: hEPO 3'-FS +3065/+3097 (dsDNA)
DNA 1: GCCCTACGTGCTGTCTCACACAGCCTGTCTGA
DNA 2: TCAGACAGGCTGTGTGAGACAGCACGTAGGGC
activity [2]: 17 fold induction

B3: M18 (dsDNA)
DNA 1: GATCGCCCTAAAAGCTGTCTCA
DNA 2: GATCTGAGACAGCTTTTAGGGC
binding result [3]: no binding

B4: mPFKL IVS-1 +336/+361 (dsDNA)
DNA 1: GATCCCGGGTAGCTGGCGTACGTGCTGCAG
DNA 2: CTGCAGCACGTACGCCAGCTACCCGGGATC
activity [4]: 47 fold induction

B5: W18 (hEPO 3'-FS nt 1-18) (dsDNA)
DNA 1: GATCGCCCTACGTGCTGTCTCA
DNA 2: GATCTGAGACAGCACGTAGGGC
binding result [5]: binds
